The results in this text go back to publication PMC5986058.

The term Km denotes the concentration of substrate that gives half-maximal velocity. As usually defined, the kcat is the number of substrate molecules converted per active site and unit of time at saturation. In general, kcat/Km refers to the second-order rate constant that governs catalysis at low substrate concentration.

Substrate in the series: C[C@H](O)[C@H](N)C(=O)O
Description: purified protein. The class given is biochemical, Aeromonas jandaei. Conditions: 50 mM NaPi pH 8, 25 °C, 50 μM PLP.

B1: LTAaj (L-threonine aldolase from Aeromonas jandaei; L-allo-threonine aldolase) (Aeromonas jandaei) (protein)
chain: MRYIDLRSDTVTQPTDAMRQCMLHAEVGDDVYGEDPGVNALEAYGADLLGKEAALFVPSGTMSNLLAVMSHCQRGEGAVLGSAAHIYRYEAQGSAVLGSVALQPVPMQADGSLALADVRAAIAPDDVHFTPTRLVCLENTHNGKVLPLPYLREMRELVDEHGLQLHLDGARLFNAVVASGHTVRELVAPFDSVSICLSKGLGAPVGSLLVGSHAFIARARRLRKMVGGGMRQAGILAQAGLFALQQHVVRLADDHRRARQLAEGLAALPGIRLDLAQVQTNMVFLQLTSGESAPLLAFMKARGILFSGYGELRLVTHLQIHDDDIEEVIDAFTEYLGA
notes: C-terminal His-tag, expressed in E. coli BL21(DE3), Ni-NTA purified, homotetramer, PLP-dependent
Consider B1, for which the Km is 500 µM, the kcat was 8.67 s⁻¹ and the kcat/Km stood at 17000 M⁻¹ s⁻¹.
